Measured values as given in patent US20180291083A1 (IMMATICS BIOTECHNOLOGIES, published 2018).

B1: KEFELRSSW (peptide)
peptide: KEFELRSSW
B2: QEIQSLLTNW (peptide)
peptide: QEIQSLLTNW
B3: AESEDLAVHL (peptide)
peptide: AESEDLAVHL
B4: VEIAEAIQL (peptide)
peptide: VEIAEAIQL
B5: EEWMGLLEY (peptide)
peptide: EEWMGLLEY
B6: SEGDNVESW (peptide)
peptide: SEGDNVESW
B7: NEDKGTKAW (peptide)
peptide: NEDKGTKAW
B8: HEIDGKALFL (peptide)
peptide: HEIDGKALFL
B9: EELFRDGVNW (peptide)
peptide: EELFRDGVNW
B10: FEVESLFQKY (peptide)
peptide: FEVESLFQKY
B11: EEGDTLLHLF (peptide)
peptide: EEGDTLLHLF
B12: NEIEHIPVW (peptide)
peptide: NEIEHIPVW
B13: AEIKQTEEKY (peptide)
peptide: AEIKQTEEKY
B14: VDASIFKAW (peptide)
peptide: VDASIFKAW
B15: SEDLAVHLY (peptide)
peptide: SEDLAVHLY
B16: KEKFPINGW (peptide)
peptide: KEKFPINGW
B17: TENPLTKLL (peptide)
peptide: TENPLTKLL
B18: EEEGNLLRSW (peptide)
peptide: EEEGNLLRSW
B19: GENEDNRIGL (peptide)
peptide: GENEDNRIGL
B20: SEDHSGSYW (peptide)
peptide: SEDHSGSYW
B21: KELEDLNKW (peptide)
peptide: KELEDLNKW
B22: AQNLSIIQY (peptide)
peptide: AQNLSIIQY
B23: GELLGRQSF (peptide)
peptide: GELLGRQSF
B24: RMPPFTQAF (peptide)
peptide: RMPPFTQAF
B25: AEIGEGAYGKVF (peptide)
peptide: AEIGEGAYGKVF
B26: EEETILHFF (peptide)
peptide: EEETILHFF
B27: EEGNLLRSW (peptide)
peptide: EEGNLLRSW
B28: SEYSHLTRV (peptide)
peptide: SEYSHLTRV
B29: KEIGAAVQAL (peptide)
peptide: KEIGAAVQAL
B30: AEPGPVITW (peptide)
peptide: AEPGPVITW
B31: AEIEIVKEEF (peptide)
peptide: AEIEIVKEEF
B32: NEQKIVRF (peptide)
peptide: NEQKIVRF
B33: GEAVTDHPDRLW (peptide)
peptide: GEAVTDHPDRLW
B34: VELDLQRSV (peptide)
peptide: VELDLQRSV
B35: GESQDSTTAL (peptide)
peptide: GESQDSTTAL
B36: REAGFQVKAY (peptide)
peptide: REAGFQVKAY
B37: KEFEQVPGHL (peptide)
peptide: KEFEQVPGHL
B38: QENMQIQSF (peptide)
peptide: QENMQIQSF
B39: TDKSFPNAY (peptide)
peptide: TDKSFPNAY
B40: DEAQARAAF (peptide)
peptide: DEAQARAAF
B41: QENQAETHAW (peptide)
peptide: QENQAETHAW
B42: AENAVSNLSF (peptide)
peptide: AENAVSNLSF
B43: REYEHYWTEL (peptide)
peptide: REYEHYWTEL
B44: NEFPVIVRL (peptide)
peptide: NEFPVIVRL
B45: GEIKEPLEI (peptide)
peptide: GEIKEPLEI
B46: SENEQRRMF (peptide)
peptide: SENEQRRMF
B47: QEVDASIFKAW (peptide)
peptide: QEVDASIFKAW
B48: SDAQRPSSF (peptide)
peptide: SDAQRPSSF
B49: KEFFFVKVF (peptide)
peptide: KEFFFVKVF
B50: NEVLASKY (peptide)
peptide: NEVLASKY
B51: EENTLVQNY (peptide)
peptide: EENTLVQNY
B52: AESEDLAVHLY (peptide)
peptide: AESEDLAVHLY
B53: VEDGLFHEF (peptide)
peptide: VEDGLFHEF
B54: AELLAKELY (peptide)
peptide: AELLAKELY
B55: EEPAFNVSY (peptide)
peptide: EEPAFNVSY
B56: KEYDFGTQL (peptide)
peptide: KEYDFGTQL
B57: EENGEVKEL (peptide)
peptide: EENGEVKEL
B58: SESPWLHAPSL (peptide)
peptide: SESPWLHAPSL
B59: SPKLQIAAM (peptide)
peptide: SPKLQIAAM
B60: KPLFKVSTF (peptide)
peptide: KPLFKVSTF
B61: IPVSHPVL (peptide)
peptide: IPVSHPVL
B62: RPNGNSLFTSA (peptide)
peptide: RPNGNSLFTSA
B63: IPVSRPIL (peptide)
peptide: IPVSRPIL
B64: APFGFLGMQSL (peptide)
peptide: APFGFLGMQSL
B65: SPVPSHWMVA (peptide)
peptide: SPVPSHWMVA
B66: RPRGLALVL (peptide)
peptide: RPRGLALVL

Target: T1, HLA-B*44:02 (human)
T1 construct: Peptide-receptive MHC class I monomer made by UV cleavage of a UV-sensitive ligand
Assay: UV ligand exchange ELISA; exchange yield grade
From the text: (§1) Candidate peptides for T cell based therapies according to the present invention were further tested for their MHC binding capacity (affinity). The individual peptide-MHC complexes were produced by UV-ligand exchange, where a UV-sensitive peptide is cleaved upon UV-irradiation, and exchanged with the peptide of interest as analyzed. Only peptide candidates that can effectively bind and stabilize the peptide-receptive MHC molecules prevent dissociation of the MHC complexes. To determine the yield of the exchange reaction, an ELISA was performed based on the detection of the light chain (β2m) of stabilized MHC complexes. The assay was performed as generally described in Rodenko et al. (Rodenko et al., 2006).
(§2) 96 well MAXISorp plates (NUNC) were coated over night with 2 ug/ml streptavidin in PBS at room temperature, washed 4× and blocked for 1 h at 37° C. in 2% BSA containing blocking buffer. Refolded HLA-A*02:01/MLA-001 monomers served as standards, covering the range of 15-500 ng/ml. Peptide-MHC monomers of the UV-exchange reaction were diluted 100-fold in blocking buffer. Samples were incubated for 1 h at 37° C., washed four times, incubated with 2 ug/ml HRP conjugated anti-β2m for 1 h at 37° C., washed again and detected with TMB solution that is stopped with […]. Absorption was measured at 450 nm. Candidate peptides that show a high exchange yield (preferably higher than 50%, most preferred higher than 75%) are generally preferred for a generation and production of antibodies or fragments thereof, and/or T cell receptors or fragments thereof, as they show sufficient avidity to the MHC molecules and prevent dissociation of the MHC complexes.

| peptide exchange yield | Binder |
| --- | --- |
| 50 to 75% | B1 |
| 50 to 75% | B2 |
| 20 to 50% | B3 |
| 50 to 75% | B4 |
| > 75% | B5 |
| 50 to 75% | B6 |
| 20 to 50% | B7 |
| 20 to 50% | B8 |
| 50 to 75% | B9 |
| 50 to 75% | B10 |
| 50 to 75% | B11 |
| 50 to 75% | B12 |
| 20 to 50% | B13 |
| 20 to 50% | B14 |
| 20 to 50% | B15 |
| 50 to 75% | B16 |
| > 75% | B17 |
| 50 to 75% | B18 |
| 20 to 50% | B19 |

| peptide exchange yield | Binder |
| --- | --- |
| 50 to 75% | B20 |
| 50 to 75% | B21 |
| 20 to 50% | B22 |
| 50 to 75% | B23 |
| 20 to 50% | B24 |
| 50 to 75% | B25 |
| 20 to 50% | B26 |
| 50 to 75% | B27 |
| 20 to 50% | B28 |
| 50 to 75% | B29 |
| 50 to 75% | B30 |
| 20 to 50% | B31 |
| 10 to 20% | B32 |
| 50 to 75% | B33 |
| 20 to 50% | B34 |
| 20 to 50% | B35 |
| 50 to 75% | B36 |
| 20 to 50% | B37 |
| 50 to 75% | B38 |

| peptide exchange yield | Binder |
| --- | --- |
| 10 to 20% | B39 |
| 20 to 50% | B40 |
| 50 to 75% | B41 |
| 20 to 50% | B42 |
| 50 to 75% | B43 |
| 50 to 75% | B44 |
| 20 to 50% | B45 |
| 50 to 75% | B46 |
| 50 to 75% | B47 |
| 10 to 20% | B48 |
| 50 to 75% | B49 |
| 10 to 20% | B50 |
| 20 to 50% | B51 |
| 20 to 50% | B52 |
| 50 to 75% | B53 |
| 20 to 50% | B54 |
| 20 to 50% | B55 |
| 20 to 50% | B56 |
| 20 to 50% | B57 |

Target: T2, HLA-B*07:02 (human)
T2 construct: Peptide-receptive MHC class I monomer made by UV cleavage of a UV-sensitive ligand
Assay: UV ligand exchange ELISA; exchange yield grade
From the text: as §1, §2

| peptide exchange yield | Binder |
| --- | --- |
| 50 to 75% | B58 |
| 50 to 75% | B59 |
| 20 to 50% | B60 |
| 20 to 50% | B61 |
| 50 to 75% | B62 |
| 50 to 75% | B63 |
| 50 to 75% | B64 |
| 50 to 75% | B65 |
| 50 to 75% | B66 |
